The record followed here is patent publication US20040175721A1 (UNIVERSITY OF MASSACHUSETTS A MASSACHUSETTS, published 2004).

B2: human centriolin Nud1 domain (amino acids 127-233 of centriolin) fused to the GAL4 transactivation domain (other, not shown: small tags and cut ends)
chain (part 1 of 2): ANFNQSGNIADSSLSFTFTNSSNGPNLITTQTNSQALSQPIASSNVHDNFMNNEITASKIDDGNNSKPLSPGWTDQTAYNAFGITTGMFNTTTMDDVYNYLFDDEDTPPNPKKE
chain (part 2 of 2): LEVLNLSYNLIGKIEKLDKLLKLRELNLSYNKISKIEGIENMCNLQKLNLAGNEIEHIPVWLGKKLKSLRVLNLKGNKISSLQDISKLKPLQDLISLILVENPVVTL
notes: also called TAD-hNud1; hNud1

The target of assay [1] is B2. Put plainly: directed yeast two-hybrid, TAD-hNud1 x LexA control. The text has this:
(§1) A 321 base pair fragment containing amino acids 127-233 of centriolin were cloned into EcoR I and Sal I sites of pGADT7 (Clontech) to produce a fusion with the GAL4 transactivation domain (TAD). Constructs pEG202 (LexA), pGP69 (LexA-BUB2), pGP122 (LexA-BFA1) and the yeast strain SGY37 were from Elmar Schiebel (Paterson Institute for Cancer Research, Manchester, U.K.). SGY37, which contains a LacZ reporter gene under control of a LexA operator, was transformed with plasmid DNA using LiAc (Ito et al., J Bacteriol, 153:163-168, 1983) and transformants selected for on dropout medium. Methods used were semi-quantitative β-galactosidase assays (Schramm et al., Methods Cell Biol., 67:71-94, 2001) and more quantitative β-galactosidase assays with CPRG (chlorophenol red-b-D-galactopyranoside, Roche) as a substrate per the manufacturer's instructions (Clontech Yeast Protocols Handbook). Co-immunopreciptation of LexA and GAL4 TAD fusion proteins were carried out as previously described (Schramm et al., Methods Cell Biol., 67:71-94, 2001).

The target in assay [2] is T1, LexA-tagged budding yeast Bfa1p (pGP122, LexA-BFA1) (budding yeast, UniProt P47113 1-574, limits assumed).
T1 construct: Construct pGP122 obtained from Elmar Schiebel; also called LexA-Bfa1p; not shown: LexA part of the vector
T1 sequence (looked up): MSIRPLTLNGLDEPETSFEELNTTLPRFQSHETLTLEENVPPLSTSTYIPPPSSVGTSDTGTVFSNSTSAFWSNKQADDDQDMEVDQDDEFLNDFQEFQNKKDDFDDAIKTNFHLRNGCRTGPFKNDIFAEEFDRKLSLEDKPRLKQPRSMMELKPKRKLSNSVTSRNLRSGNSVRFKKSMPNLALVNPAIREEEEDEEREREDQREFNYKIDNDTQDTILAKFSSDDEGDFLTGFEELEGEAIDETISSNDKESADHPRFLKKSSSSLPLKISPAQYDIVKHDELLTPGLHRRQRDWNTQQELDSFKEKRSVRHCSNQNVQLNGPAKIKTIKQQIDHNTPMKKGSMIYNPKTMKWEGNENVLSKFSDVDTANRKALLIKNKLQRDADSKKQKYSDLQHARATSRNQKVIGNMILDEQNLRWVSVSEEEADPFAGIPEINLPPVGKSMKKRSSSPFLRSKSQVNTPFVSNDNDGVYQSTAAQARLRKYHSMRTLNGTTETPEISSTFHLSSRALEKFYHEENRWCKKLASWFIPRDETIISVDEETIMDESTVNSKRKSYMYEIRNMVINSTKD
Put plainly: directed yeast two-hybrid.
Description: as §1

Assay [3] has as its target T2, LexA-tagged budding yeast Bub2p (pGP69, LexA-BUB2) (budding yeast, UniProt P26448 1-306, limits assumed).
T2 construct: Construct pGP69 obtained from Elmar Schiebel; also called LexA-Bub2p; not shown: LexA part of the pEG202-type vector
T2 sequence (looked up): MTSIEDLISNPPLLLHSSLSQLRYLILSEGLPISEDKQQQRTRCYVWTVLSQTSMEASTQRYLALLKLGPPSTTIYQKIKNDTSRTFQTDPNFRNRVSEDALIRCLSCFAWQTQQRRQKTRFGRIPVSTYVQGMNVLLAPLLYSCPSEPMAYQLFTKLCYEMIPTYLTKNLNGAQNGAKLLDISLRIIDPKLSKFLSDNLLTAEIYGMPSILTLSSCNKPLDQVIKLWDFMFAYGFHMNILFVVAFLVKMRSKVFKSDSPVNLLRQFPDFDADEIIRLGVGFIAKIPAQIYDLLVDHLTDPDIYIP
Put plainly: directed yeast two-hybrid, LexA-BUB2 x TAD control.
Description: as §1

B1: LexA alone (pEG202) (other, UniProt P0A7C2 1-202, looked up)
chain: MKALTARQQEVFDLIRDHISQTGMPPTRAEIAQRLGFRSPNAAEEHLKALARKGVIEIVSGASRGIRLLQEEEEGLPLVGRVAAGEPLLAQQHIEGHYQVDPSLFKPNADFLLRVSGMSMKDIGIMDGDLLAVHKTQDVRNGQVVVARIDDEVTVKRLKKQGNKVELLPENSEFKPIVVDLRQQSFTIEGLAVGVIRNGDWL
As to B1, the binding result in assay [1] is on record as “no binding”.

In the case of B2, the binding result in assay [2] is listed as “no binding”.

B3: GAL4 transactivation domain alone (other, UniProt P04386 768-881, looked up)
chain: ANFNQSGNIADSSLSFTFTNSSNGPNLITTQTNSQALSQPIASSNVHDNFMNNEITASKIDDGNNSKPLSPGWTDQTAYNAFGITTGMFNTTTMDDVYNYLFDDEDTPPNPKKE
notes: also called TAD
Consider B3, for which the binding result in assay [3] was “no binding”.
